Results on 1 sequence are retold here after publication PMC6182170.

Residue numbers refer to the chain shown, from its start.

Holding throughout (assay): EMSA
What all share (conditions): EMSA: 20 pM dsRNA, 50 mM KCl, 10 mM Tris-HCl pH 8.0, 10% glycerol, 1 mM MgCl2, 0.5 mM DTT, on ice 30 min; native 6% gel, 0.5x TBE, 4 C

In data set [1] the target is T1, ADR-1 dsRBD1 mutant (ds1) K223E;K224A;K227A (Caenorhabditis elegans) (UniProt Q9U3D6).
T1 sequence: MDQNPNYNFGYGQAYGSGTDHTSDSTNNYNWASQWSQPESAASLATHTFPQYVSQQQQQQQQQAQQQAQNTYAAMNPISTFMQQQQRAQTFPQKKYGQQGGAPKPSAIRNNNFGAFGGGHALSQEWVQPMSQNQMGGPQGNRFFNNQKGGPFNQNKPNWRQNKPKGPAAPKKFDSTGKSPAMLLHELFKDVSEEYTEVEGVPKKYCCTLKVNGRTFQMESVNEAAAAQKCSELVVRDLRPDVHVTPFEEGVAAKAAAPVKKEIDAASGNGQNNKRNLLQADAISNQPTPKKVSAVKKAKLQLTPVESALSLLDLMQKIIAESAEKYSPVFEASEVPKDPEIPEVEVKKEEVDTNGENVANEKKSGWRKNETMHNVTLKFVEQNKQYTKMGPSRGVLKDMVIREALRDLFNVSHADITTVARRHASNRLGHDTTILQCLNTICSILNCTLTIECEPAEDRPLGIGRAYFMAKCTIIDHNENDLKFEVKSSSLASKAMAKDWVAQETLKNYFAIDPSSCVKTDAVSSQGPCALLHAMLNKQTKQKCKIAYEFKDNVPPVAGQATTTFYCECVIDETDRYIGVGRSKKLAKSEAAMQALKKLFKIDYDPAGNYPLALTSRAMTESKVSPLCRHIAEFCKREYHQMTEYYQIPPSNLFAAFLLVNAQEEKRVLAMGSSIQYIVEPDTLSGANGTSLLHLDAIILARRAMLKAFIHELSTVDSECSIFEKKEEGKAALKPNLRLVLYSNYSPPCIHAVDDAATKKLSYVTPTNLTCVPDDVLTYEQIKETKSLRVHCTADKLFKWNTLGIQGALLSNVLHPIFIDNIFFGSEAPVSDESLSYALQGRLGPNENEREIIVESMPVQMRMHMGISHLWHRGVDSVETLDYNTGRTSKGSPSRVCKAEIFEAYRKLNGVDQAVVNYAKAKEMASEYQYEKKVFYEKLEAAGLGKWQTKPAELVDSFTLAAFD

The target of data set [2] is T2, ADR-1 dsRBD2 mutant (ds2) K584E;K585A;K588A (Caenorhabditis elegans) (UniProt Q9U3D6).
T2 sequence: T1 sequence with E223K, A224K, A227K, K584E, K585A, K588A

Data set [3] addresses ADR-1 WT;ADR-2 WT (Caenorhabditis elegans;Caenorhabditis elegans) (UniProt Q9U3D6+Q22618).

Chain of ADR-1 WT;ADR-2 WT (Caenorhabditis elegans;Caenorhabditis elegans) (Q22618 whole entry, one chain of several): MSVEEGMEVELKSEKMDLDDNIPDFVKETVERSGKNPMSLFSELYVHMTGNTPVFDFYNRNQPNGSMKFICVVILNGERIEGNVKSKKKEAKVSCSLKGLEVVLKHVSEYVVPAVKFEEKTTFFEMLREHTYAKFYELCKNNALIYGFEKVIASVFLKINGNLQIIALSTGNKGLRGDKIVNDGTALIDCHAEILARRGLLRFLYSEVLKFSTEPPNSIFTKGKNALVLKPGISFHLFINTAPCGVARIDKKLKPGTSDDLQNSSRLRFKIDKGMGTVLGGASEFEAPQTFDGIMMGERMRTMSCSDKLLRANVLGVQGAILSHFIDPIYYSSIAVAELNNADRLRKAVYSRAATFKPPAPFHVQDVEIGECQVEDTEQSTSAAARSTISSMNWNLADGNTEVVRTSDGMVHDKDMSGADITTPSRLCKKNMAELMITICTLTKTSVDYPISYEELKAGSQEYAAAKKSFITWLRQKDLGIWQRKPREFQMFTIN

Consider “UUAUUAGGUCGGCAAAUAAUUAUUGACGUGUUUUGCCAAUUAACGAUUUUUUGUAAAUUUUAUAUGUGUCUCUUACAGUAAACCGAGAGUGUAUAAAAGCAUAUGAAUAUCAGUUGCUUUGGUCAUCUGAGUAGUAAUACGAUUCGAAAAAAUCGAAAAGUUUUUUUUCCAAUUUUUUGAGUUAGCCGUGAGAGUUG / CAACUCUUCACAGCUAACUCAAAAAAUCGCGAAAAGCAUUUUUCAAAAAAUUUUUGAUUUUUUAGAUUCUUAAUACUACGCAGGUAGCCAAAGUAGCUGAUAUUUUUAUGUUUUCAUACAUUCACAUUUUACUAUAAGACACACAUACAAAAUUUACAAAAAUUGUUAAUUGACAAAAUACGUCAAUAAUUAUUUGUCUACCUAAUAA [lam-2 3'UTR 200 bp dsRNA]”, for which the Kd (in general, the free concentration of one partner at which half of the binding sites on the other are occupied at equilibrium, for simple one-to-one binding) in data set [1] stood at 1.47 nM; in data set [2] it was 0.95 nM; in data set [3], 1.5 nM.
